Measurements: publication PMC6318265, “Structure of BAI1/ELMO2 complex reveals an action mechanism of adhesion GPCRs via ELMO family scaffolds” (Nature Communications, 2019)

T1: ELMO2-RAE (sample of the ITC titration) (human, UniProt Q96JJ3 1-520)
T1 construct: ELMO2, GenBank AF398886.1, aa 1-520 (RBD-ARR-ELMO tandem); Tag removal is described only for crystallography; also called Trx-His6-ELMO2-RAE; source: E. coli BL21 (DE3), purified (Ni-NTA, SEC)
T1 sequence (looked up): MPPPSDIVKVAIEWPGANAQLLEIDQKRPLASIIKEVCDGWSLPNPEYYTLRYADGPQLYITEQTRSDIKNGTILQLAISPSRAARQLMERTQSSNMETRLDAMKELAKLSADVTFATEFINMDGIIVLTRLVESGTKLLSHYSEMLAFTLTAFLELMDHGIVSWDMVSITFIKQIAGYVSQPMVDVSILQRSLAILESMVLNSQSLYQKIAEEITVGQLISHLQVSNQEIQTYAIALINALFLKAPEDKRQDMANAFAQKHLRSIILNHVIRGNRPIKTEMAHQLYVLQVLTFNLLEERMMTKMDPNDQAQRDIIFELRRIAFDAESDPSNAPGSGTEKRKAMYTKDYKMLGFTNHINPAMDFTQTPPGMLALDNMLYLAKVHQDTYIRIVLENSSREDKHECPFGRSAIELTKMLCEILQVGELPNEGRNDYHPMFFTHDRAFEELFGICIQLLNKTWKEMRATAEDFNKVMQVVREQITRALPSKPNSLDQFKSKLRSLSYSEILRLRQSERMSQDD

T2: ELMO2-RAE (tag removed, for crystallography) (human, UniProt Q96JJ3 1-520)
T2 construct: ELMO2, GenBank AF398886.1, aa 1-520 (RBD aa 1-80, ARR aa 81-301, ELMO domain aa 306-513); also called RAE tandem of ELMO2; source: E. coli BL21 (DE3), purified (Ni-NTA, SEC, 3C protease cleavage, SEC)
T2 sequence (looked up): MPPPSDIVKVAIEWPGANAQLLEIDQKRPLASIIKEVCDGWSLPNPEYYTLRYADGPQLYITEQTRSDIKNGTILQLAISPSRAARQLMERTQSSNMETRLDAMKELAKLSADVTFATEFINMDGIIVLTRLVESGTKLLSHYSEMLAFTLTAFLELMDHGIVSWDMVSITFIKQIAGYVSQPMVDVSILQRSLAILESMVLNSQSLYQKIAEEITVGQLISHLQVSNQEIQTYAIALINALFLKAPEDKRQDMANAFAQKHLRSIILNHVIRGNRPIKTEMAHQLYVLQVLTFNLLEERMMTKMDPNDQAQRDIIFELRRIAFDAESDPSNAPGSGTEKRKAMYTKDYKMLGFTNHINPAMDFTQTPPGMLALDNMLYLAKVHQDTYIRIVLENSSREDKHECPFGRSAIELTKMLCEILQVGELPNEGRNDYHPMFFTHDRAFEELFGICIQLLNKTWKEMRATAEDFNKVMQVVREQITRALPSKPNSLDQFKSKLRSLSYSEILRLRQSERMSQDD


Experiments:
[1] = molecular target: T1, ELMO2-RAE (sample of the ITC titration); experiment: ITC; MicroCal iTC200, 25 °C; 50 mM Tris pH 8.0, 100 mM NaCl, 1 mM EDTA, 1 mM DTT; BAI1-EBD (~500 µM) in the syringe, ELMO2-RAE (~40 µM) in the cell; conditions: both partners purified
[2] = molecular target: T2, ELMO2-RAE (tag removed, for …); experiment: crystal structure; ELMO2-RAE mixed with synthetic BAI1-EBD peptide at 1:2; 0.3 M ammonium fluoride, 18% PEG3,350, 16 °C; 1.7 Å, molecular replacement; conditions: both partners purified

Kd [1] [µM]	stoichiometry N [1]	stoichiometry N [2]	Binder
~3.36	1	–	SLERRKSRYAELDFEKIMHTRKRHQDMFQDLNRKLQ (domain or fragment, mouse, UniProt Q3UHD1-1 1467-1502, looked up, the methods speak of 'BAI1 proteins') [BAI1-EBD (sample of the ITC titration)]
–	–	1	SLERRKSRYAELDFEKIMHTRKRHQDMFQDLNRKLQ (peptide, UniProt Q3UHD1-1 1467-1502, looked up, aa 1471-1495 are defined in the electron density; source: synthetic peptide (ChinaPeptide Co.,Ltd.)) [synthetic BAI1-EBD peptide]
